Experimental data: patent US20050287648A1 (UNIVERSITY OF ROCHESTER, published 2005)

Target: APOBEC-1 (apolipoprotein B mRNA editing catalytic subunit 1) (Homo sapiens (Human), UniProt P41238 1-236)
Experiment: yeast two-hybrid (MatchMaker; his- selection and lacZ filter lift), negative control
From the text: The MatchMaker system includes specific protocols for setting up the yeast two hybrid selection, for verifying true His+, LacZ+ transformants and ruling out false positives. Both the selection scheme and verification of true positives follow the manufacturer's recommendations using cDNAs encoding APOBEC-and ACF (FIG. 9).

Sequence of APOBEC-1 (apolipoprotein B mRNA editing catalytic subunit 1) (P41238 whole entry M80I): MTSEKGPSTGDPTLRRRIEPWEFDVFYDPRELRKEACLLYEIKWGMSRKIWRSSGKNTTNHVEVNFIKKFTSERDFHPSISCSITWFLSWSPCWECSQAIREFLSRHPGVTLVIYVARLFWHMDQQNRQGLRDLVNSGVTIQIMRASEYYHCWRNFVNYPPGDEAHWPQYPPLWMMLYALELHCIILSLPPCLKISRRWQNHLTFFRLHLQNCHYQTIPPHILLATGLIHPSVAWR

B1: lamin C (other, UniProt P02545-2 66-230, looked up)
chain: SEEVVSREVSGIKAAYEAELGDARKTLDSVAKERARLQLELSKVREEFKELKARNTKKEGDLIAAQARLKDLEALLNSKEAALSTALSEKRTLEGELHDLRGQVAKLEAALGEAKKQLQDEMLRRVDAENRLQTMKEELDFQKNIYSEELRETKRRHETRLVEID
notes: Negative-control two-hybrid fusion
binding result: no binding
